Test results from patent US20100183649A1 (ACADEMIA SINICA, published 2010).

B1: FMDV capsid protein VP3 (other)
chain: GIFPVACSDGYGGLVTTDPKTADPVYGKVFNPPRNLLPGRFTNLLDVAEACPTFLHFDGDVPYVTTKTDSDRVLAQFDLSLAAKHMSNTFLAGLAQYYTQYSGTINLHFMFTGPTDAKARYMVAYAPPGMEPPKTPEAAAHCIHAEWDTGLNSKFTFSIPYLSAADYAYTASDVAETTNVQGWVCLFQITHGKADGDALVVLASAGKDFDLRLPVDARTQ
B2: FMDV capsid protein VP1 (other)
chain: TTSAGESADPVTATVENYGGETQVQRRQHTDIAFILDRFVKVKPKEQVNVLDLMQIPAHTLVGALLRTATYYFSDLELAVKHEGDLTWVPNGAPETALDNTTNPTAYHKEPLTRLALPYTAPHRVLATVYNGSSKYGDTSTNNVRGDLQVLAQKAERTLPTSFNFGAIKATRVTELLYRMKRAETYCPRPLLAIQPSDARHKQRIVAPAKQLL

What was measured:
[1] = target: FMDV capsid protein VP0 (foot-and-mouth disease virus, UniProt Q6PMV1 218-504); test: size exclusion HPLC of the U1P1 protease-treated product
[2] = target: B1; test: as above

Question: Does B1 bind [1]?
Answer: binds

Question: Does B2 bind [2]?
Answer: binds

Question: Does B2 bind [1]?
Answer: binds
